Test results as given in article PMC4822050, “Hemi-methylated DNA opens a closed conformation of UHRF1 to facilitate its histone recognition” (Nature Communications, 2016).
Where two headings read alike, the source gives them in different places.

Key:
Type in all cases: binding
H3K9me3 peptide (1–17) = test: ITC, H3K9me3 peptide (1-17) titrated into UHRF1 proteins
Description: (§1) For competition ITC experiments: the indicated proteins were pre-incubated with competitive peptide, protein or hm-DNA (at 1:2 molar ratio if not specified) for 10 min followed by ITC measurements as described above. Proteins, DNA and peptides were prepared within ITC buffer containing 10 mM HEPES, pH 8.0, 100 mM NaCl. The data were fitted by software Origin 7.0. All ITC results were summarized in Supplementary Table 2 and raw data were shown in Supplementary Fig. 9.

hm-DNA (12 bp) = test: ITC, hm-DNA titrated into UHRF1 domains; details: 18 °C, 12-bp hm-DNA in syringe, named protein in cell, 10 mM HEPES pH 8.0, 100 mM NaCl
Description: as §1

[1] = biological target: T1, TTD (residues 134–285) of UHRF1 (Homo sapiens, UniProt Q96T88); test: ITC, TTD titrated into Spacer variants and other UHRF1 fragments; details: TTD in syringe
T1 construct: TTD (residues 134–285); GST (N, cleaved yes); made in house; host or cells: E. coli BL21 (DE3)
T1 sequence (Q96T88 134-285): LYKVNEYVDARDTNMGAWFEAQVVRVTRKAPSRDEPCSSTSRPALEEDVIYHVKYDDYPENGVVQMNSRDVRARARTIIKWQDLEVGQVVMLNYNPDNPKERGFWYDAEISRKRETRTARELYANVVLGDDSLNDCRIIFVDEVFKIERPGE
Description: as §1

[2] = biological target: T2, Spacer (residues 587–674) of UHRF1 (Homo sapiens, UniProt Q96T88); test: ITC, interaction of UHRF1 domains with the Spacer
T2 construct: Spacer (residues 587–674); GST (N, cleaved yes); made in house; host or cells: E. coli BL21 (DE3)
T2 sequence (Q96T88 587-674): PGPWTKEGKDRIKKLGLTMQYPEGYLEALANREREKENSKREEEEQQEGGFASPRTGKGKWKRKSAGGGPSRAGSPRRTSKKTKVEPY
Description: as §1

[3] = ITC, 18 °C, named protein 0.05 mM in cell, H3K9me3 (1-17) 0.5 mM in syringe, 10 mM HEPES pH 8.0, 100 mM NaCl, read-out: KD

B1: Spacer: C-terminal spacer region of human UHRF1 (residues 587–674) (protein)
chain: PGPWTKEGKDRIKKLGLTMQYPEGYLEALANREREKENSKREEEEQQEGGFASPRTGKGKWKRKSAGGGPSRAGSPRRTSKKTKVEPY
modifications: left off: GST, end not stated, cleaved
H3K9me3 peptide (1–17); competition ITC, molar ratio TTD–PHD/Spacer=1:2, read-out: KD of H3K9me3 for TTD–PHD in the presence of the Spacer
  Kd: 1.63 ± 0.08 µM
hm-DNA (12 bp)
  KD: no interaction
[1]; ITC stoichiometry
  N: 0.95±0.00786
[1]; ITC
  ΔH: -1.13 E4±116.7 cal/mol
  ΔS: -12.3 cal/mol/deg

B2: UHRF1D334A: UHRF1 mutant D334A, which abolishes H3R2-binding affinity of the PHD (protein)
chain: MWIQVRTMDGRQTHTVDSLSRLTKVEELRRKIQELFHVEPGLQRLFYRGKQMEDGHTLFDYEVRLNDTIQLLVRQSLVLPHSTKERDSELSDTDSGCCLGQSESDKSSTHGEAAAETDSRPADEDMWDETELGLYKVNEYVDARDTNMGAWFEAQVVRVTRKAPSRDEPCSSTSRPALEEDVIYHVKYDDYPENGVVQMNSRDVRARARTIIKWQDLEVGQVVMLNYNPDNPKERGFWYDAEISRKRETRTARELYANVVLGDDSLNDCRIIFVDEVFKIERPGEGSPMVDNPMRRKSGPSCKHCKDDVNRLCRVCACHLCGGRQDPDKQLMCAECDMAFHIYCLDPPLSSVPSEDEWYCPECRNDASEVVLAGERLRESKKKAKMASATSSSQRDWGKGMACVGRTKECTIVPSNHYGPIPGIPVGTMWRFRVQVSESGVHRPHVAGIHGRSNDGAYSLVLAGGYEDDVDHGNFFTYTGSGGRDLSGNKRTAEQSCDQKLTNTNRALALNCFAPINDQEGAEAKDWRSGKPVRVVRNVKGGKNSKYAPAEGNRYDGIYKVVKYWPEKGKSGFLVWRYLLRRDDDEPGPWTKEGKDRIKKLGLTMQYPEGYLEALANREREKENSKREEEEQQEGGFASPRTGKGKWKRKSAGGGPSRAGSPRRTSKKTKVEPYSLTAQQSSLIREDKSNAKLWNEVLASLKDRPASGSPFQLFLSKVEETFQCICCQELVFRPITTVCQHNVCKDCLDRSFRAQVFSCPACRYDLGRSYAMQVNQPLQTVLNQLFPGYGNGR
modifications: left off: GST, end not stated, cleaved
H3K9me3 peptide (1–17); ITC, 18 °C, named protein 0.05 mM in cell, H3K9me3 (1-17) 0.5 mM in syringe, 10 mM HEPES pH 8.0, 100 mM NaCl
  KD: undetectable

B3: R295D/R296D mutant of full-length UHRF1: full-length UHRF1 with Linker mutation R295D/R296D (protein)
chain: MWIQVRTMDGRQTHTVDSLSRLTKVEELRRKIQELFHVEPGLQRLFYRGKQMEDGHTLFDYEVRLNDTIQLLVRQSLVLPHSTKERDSELSDTDSGCCLGQSESDKSSTHGEAAAETDSRPADEDMWDETELGLYKVNEYVDARDTNMGAWFEAQVVRVTRKAPSRDEPCSSTSRPALEEDVIYHVKYDDYPENGVVQMNSRDVRARARTIIKWQDLEVGQVVMLNYNPDNPKERGFWYDAEISRKRETRTARELYANVVLGDDSLNDCRIIFVDEVFKIERPGEGSPMVDNPMDDKSGPSCKHCKDDVNRLCRVCACHLCGGRQDPDKQLMCDECDMAFHIYCLDPPLSSVPSEDEWYCPECRNDASEVVLAGERLRESKKKAKMASATSSSQRDWGKGMACVGRTKECTIVPSNHYGPIPGIPVGTMWRFRVQVSESGVHRPHVAGIHGRSNDGAYSLVLAGGYEDDVDHGNFFTYTGSGGRDLSGNKRTAEQSCDQKLTNTNRALALNCFAPINDQEGAEAKDWRSGKPVRVVRNVKGGKNSKYAPAEGNRYDGIYKVVKYWPEKGKSGFLVWRYLLRRDDDEPGPWTKEGKDRIKKLGLTMQYPEGYLEALANREREKENSKREEEEQQEGGFASPRTGKGKWKRKSAGGGPSRAGSPRRTSKKTKVEPYSLTAQQSSLIREDKSNAKLWNEVLASLKDRPASGSPFQLFLSKVEETFQCICCQELVFRPITTVCQHNVCKDCLDRSFRAQVFSCPACRYDLGRSYAMQVNQPLQTVLNQLFPGYGNGR
modifications: left off: GST, end not stated, cleaved
H3K9me3 peptide (1–17); ITC, Supplementary Fig. 4g
  fold lower binding affinity to H3K9me3 than wild type UHRF1: eight

B4: TTD–PHD: human UHRF1 residues 134–366 (protein)
chain: LYKVNEYVDARDTNMGAWFEAQVVRVTRKAPSRDEPCSSTSRPALEEDVIYHVKYDDYPENGVVQMNSRDVRARARTIIKWQDLEVGQVVMLNYNPDNPKERGFWYDAEISRKRETRTARELYANVVLGDDSLNDCRIIFVDEVFKIERPGEGSPMVDNPMRRKSGPSCKHCKDDVNRLCRVCACHLCGGRQDPDKQLMCDECDMAFHIYCLDPPLSSVPSEDEWYCPECRND
modifications: left off: GST, end not stated, cleaved
H3K9me3 peptide (1–17); ITC KD ratio
  fold higher binding affinity to H3K9me3 peptide than full-length UHRF1: ~31 fold
H3K9me3 peptide (1–17); [3]
  Kd: 0.15 µM
[2]; ITC stoichiometry, Spacer in syringe
  N: 0.887±0.0379
[2]; ITC, 18 °C, Spacer in syringe, named protein in cell, 10 mM HEPES pH 8.0, 100 mM NaCl
  Kd: 10.7 µM
[2]; ITC, Spacer in syringe
  ΔH: -6.561 ± 0.4116 kcal/mol
  ΔS: 0.285 cal/mol/deg
[2]; ITC, molar ratio of TTD-PHD or TTD: H3K9me3=1:2
  interaction between the Spacer and the named protein in the presence of H3K9me3: No detectable interaction

B5: UHRF1D334A&∆627-674: UHRF1 with mutation D334A and deletion of residues 627–674 (protein)
chain: MWIQVRTMDGRQTHTVDSLSRLTKVEELRRKIQELFHVEPGLQRLFYRGKQMEDGHTLFDYEVRLNDTIQLLVRQSLVLPHSTKERDSELSDTDSGCCLGQSESDKSSTHGEAAAETDSRPADEDMWDETELGLYKVNEYVDARDTNMGAWFEAQVVRVTRKAPSRDEPCSSTSRPALEEDVIYHVKYDDYPENGVVQMNSRDVRARARTIIKWQDLEVGQVVMLNYNPDNPKERGFWYDAEISRKRETRTARELYANVVLGDDSLNDCRIIFVDEVFKIERPGEGSPMVDNPMRRKSGPSCKHCKDDVNRLCRVCACHLCGGRQDPDKQLMCAECDMAFHIYCLDPPLSSVPSEDEWYCPECRNDASEVVLAGERLRESKKKAKMASATSSSQRDWGKGMACVGRTKECTIVPSNHYGPIPGIPVGTMWRFRVQVSESGVHRPHVAGIHGRSNDGAYSLVLAGGYEDDVDHGNFFTYTGSGGRDLSGNKRTAEQSCDQKLTNTNRALALNCFAPINDQEGAEAKDWRSGKPVRVVRNVKGGKNSKYAPAEGNRYDGIYKVVKYWPEKGKSGFLVWRYLLRRDDDEPGPWTKEGKDRIKKLGLTMQYPEGYLEALANREREKENSKSLTAQQSSLIREDKSNAKLWNEVLASLKDRPASGSPFQLFLSKVEETFQCICCQELVFRPITTVCQHNVCKDCLDRSFRAQVFSCPACRYDLGRSYAMQVNQPLQTVLNQLFPGYGNGR
modifications: left off: GST, end not stated, cleaved
H3K9me3 peptide (1–17); [3]
  Kd: 8.69 µM
